Measured values published in the DeepSol protein solubility set.

assay: soluble on expression in E. coli; label from the status in PepcDB or PDB records

Sequence	soluble on expression in E. coli
MASFCNSWKRKHNEAIKLSEEIDGMILERSSLAETSSYARGHASYMRRKITILANGVQTLKNLLAESQGKSISAKEMSRCKDMVEDLRSKAYQMASALDMLKFSNIGSLLGQDDIMSRVIDMDNQEIVGFQRTTMKGKLKGVMHLKREALAMNMELGLQTRLIDRLDHHVDVSASDVEELQRSIDTGVCMTLLLSVVVVVFGLSEFVKFGRRRILG	soluble
MASFRSTLALVNSAKLSLSTRTMASHPLAGLLGKLNHVAIATPDLKKSSEFYKGLGAKVSEAVPQPEHGVYTVFVELPNSKIELLHPFGEKSPIQAFLNKNKDGGMHHICIEVRDIHEAVSAVKTKGIRTLGEKPKIGAHGKEVMFLHPKDCGGVLIELEQE	not soluble
MASFTSPDIDEKLAILHREMASLRVECDRLLNKHLIVEHTLSQSCSGWPNGAADTSSAYNTGGESCRSVSVTPDGVFIPTTSNSQMIQSQPSPRVLRRTVKMASPAVQRRLVPQNLPTSSSSRPPTVLLPHDSPEQPSRPIHRMHQELPIPEDVVSMVSSNKTQRSIIRAPSAVFGALKGSSLRKLSISRNIQMTTKVNKEESDRKEKEAEEYAKRFRIPSYSVVLKEEKRKSSFRIPVPHYFRSSKAKSKVYQVDAPDEEIEEVIDEEKMAAKTDLGDTTVHYKWKVKRRCDGSRYIVKRPIRSQILKKREAQVYRERAPISTDDDAMSELKLGRYHTKEERKRILERENTKKMLKLQQKMMEKAHPSEQVIYQMSQQKLARQKDAMVMDEFVTTREVLSSRTRPDGIHGVVSVTTV	not soluble
MASKSRILQLKGTGLKKVPDEIEPLADVLRNLELSENKIREIPIFIGQFSQLKQLHLANNCLEFLPDELGSMKKLEILNLAGNKLKALPDTIVGCTDLKTIDLSSNVFTVFPVAVIGCLQLDILNLNGNQIESLPDDISNLKVIELSLNQNRLSSLNPSNLAKTTRLRTLRLDENCLEKSEFTRDLLESSTISVMSYDGNRFQLKDFQDLPGYDAYQERFTATKRKI	not soluble
MASMKKSTENESTNYQYKIQELRKLLKSLLLNYLELIGVLSINPDMYERKVENIRTILVNIHHLLNEYRPHQSRESLIMLLEEQLEYKRGEIREIEQVCKQVHDKLTS	soluble
MASNFKKANMASSSQRKRMSPKPELTEEQKQEIREAFDLFDADGTGTIDVKELKVAMRALGFEPKKEEIKKMISEIDKEGTGKMNFGDFLTVMTQKMSEKDTKEEILKAFKLFDDDETGKISFKNLKRVAKELGENLTDEELQEMIDEADRDGDGEVSEQEFLRIMKKTSLY	soluble
MASPAAGDVLIVGSGLVGRSWAMLFASGGFRVKLYDIEPRQITGALENIRKEMKSLQQSGSLKGSLSAEEQLSLISSCTNLAEAVEGVVHIQECVPENLDLKRKIFAQLDSIVDDRVVLSSSSSCLLPSKLFTGLAHVKQCIVAHPVNPPYYIPLVELVPHPETSPATVDRTHALMRKIGQSPVRVLKEIDGFVLNRLQYAIISEAWRLVEEGIVSPSDLDLVMSDGLGMRYAFIGPLETMHLNAEGMLSYSDRYSEGMKRVLKSFGSIPEFSGATVEKVNQAMCKKGPADPEHLAARREWRDECLKRELAKLKRQMQPQ	soluble
MASPENVILVHEISKLKTKEELWNPYEWYQFMRDNHPVHYDDEQDVWNVFLYDDVNRVLSDYSLFSSRRERRQFAIPPLETRININSTDPPEHRNVRSIVSKAFTPRSLEQWKPRIQSIANELVKDIENCSEVDIVEQFAAPLPVTVISDLLGVPTTDRKKIKAWSDILFMPYSKEKFNDLDAEKGIALNEFKAYLLPIVQEKRYHLTDDIISDLIRAEYEGERLTDEEIVTFSLGLLAAGNETTTNLIINSFYCFLVDSPATYKEVREKPKLISKAVEEVLRYRFPVTLARRITEDTNIFGPLMKKDQMVVAWVSAANLDEKKFSQASKFNIHRIGNEKHLTFGKGPHFCLGAPLARLEAEIALTTFINAFEKIALSPSFNIEQCILENEQTLKFLPIRLKPQ	not soluble
MASQGFSVYVGNVPYQGTEEEIGNYFAAVGHVNNVRIVYDRETGRPRGFAFVEFSEEAGAQRAVEQLNGVAFNGRNLRVNYANK	soluble
MASSSATLSLCSTFSAHCNVNSRRSSTILCSLSKPSLNLAKPLTGFLSPSTASTSRTAFTVAPKFAESVVEAEPETTDIEAVVVSDVSEVTEEKAKREEIFAVIMVGGRQYIVFPGRYLYTQRLKDANVDDQIVLNKVLLVGTKTHTYIGKPVVTNATVHAVVESQGLNDKVVVFKYKPKKKYRRNIGHRQPNTRIRITGITGYEEYPASPNVAVGEVNLLEHHHHHH	not soluble
MASSSSLSLSFPSSSLSRTWDYDVFPSFHGEDVRKAFLSQILKKEFGRKAINFFVDHEMERGEFIGPVLKQAIKGSKIALVLLSKNYASSWCCLDELVEIMKKESGQTVITIFYEVDPNEVKKQTGDFGKAFKETCQGKTEEKVQTWRKALEGVGLATIAGFHSSNWFVFFI	not soluble
MASVPTHQSEKEKKNDELSTAILKDKVKPNRLIVDQSEQDDNSVIAVSQAKMDELGLFRGDAVILKGKKRKESVAIIVSDESCPNEKVRMNRVVRNNLRIRLGDVVSITPAPNLSYGTRIHVLPIDDTIEGLTGNLFDVFLKPYFLEAYRPLHKGDIFTVQAAMRTVEFKVVETEPAPACIVSPDTMIHYEGDPIKREEEEESMNDIGYDDLGGVRKQLAQIKEMVELPLRHPQLFKAIGIKPPRGILLFGPPGTGKTLIARAVANETGSFFFLINGPEVMSKMSGESESNLRKAFEECEKNQPAILFIDEIDAIAPKREKTNGEVERRIVSQLLTLMDGVKGRSNLVVIAATNRPNSIDGALRRFGRFDREIDIGIPDAVGRLEILRIHTKNMKLADDVDLEQIANECHGFVGADLASLCSEAALQQIREKMELIDLEDDQIDAEVLNSLAVTMENFRFAQGKSSPSALREAVVETPNTTWSDIGGLQNVKRELQELVQYPVEHPEKYLKFGMQPSRGVLFYGPPGCGKTLLAKAIANECQANFISIKGPELLTMWFGESEANVRDVFDKARAAAPCVLFFDELDSIAKARGGGAGGDGGGASDRVINQVLTEMDGMNAKKNVFIIGATNRPDIIDPAVLRPGRLDQLIYIPLPDEASRHQILKASLRKTPLSKDLDLTFLAKNTVGFSGADLTEICQRACKLAIRESIEKEIRIEKERQDRQARGEELMEDDAVDPVPEITRAHFEEAMKFARRSVTDNDIRKYEMFAQTLQQSRGFGNNFKFPGEQRGSDAPSAPVPAQDDDDLYN	soluble
MATEAVYGSWDSPITPDLFGKCNCKSICEMQVVGGNVYWIEQNSVTGKRELYSKPTNGDTRTRWADGQSVQTAIHEYGGGALHVLADGSVLFATIEGVFYQKSADSGVEQLAEGNNRMFRFSDFSATDTHVFCVNETHQADAKFPENRLISIDRATKNQNVIAHGADFYAYPRVSPDGKKLVWMQWSLPNMPWDETSIRMADLKGGESSNEVTLKDGTGKQINYSEPTWDGDELLTVNDSTNWWNVYKSAAEPNSVEKNLNPIQREISYPLWQLGFRNYVLNKKYLVMNADGILYVRSGDVTVEIPTPGYTVFGYLSLDQNGSDLFAIASGPKRASSVISIDLANKNFPLKVHRESRDSSEIDALEISEPEEFVFKSDGVDVSAGTLPPVLLLGHGGPTAPAQNNLDLKKQFFTSRGIAVFDVNYRGSTGFGTEFRRMLYKNCGVADRDDMLNGAKALVEQGKVDAEKVLITGSSSGGYLILSCLISPKNIIKAAVSVYGVADLLALDEDTHKLERCYNEMLIGKYPEQASIYEERSPIYHIDKIRTPIAFLHGREDTVVPMSQSITMYEKIRASGVTTALMLFDGEGHGFRNGQVIKESTEATFYFLMKAVGIEPSISSKIEIVNPKH	not soluble
MATGGLAIIQSMKHKLPPSERKLADYILAHPHKAIESTVNEISALANSSDAAVIRLCKSLGLKGFQDLKMRVAGDLAKPTFQGYRDIVPHEPLPSISEKTAGNAIQAI	soluble
MATLTEDDVLEQLDAQDNLFSFMKTAHSILLQGIRQFLPSLFVDNDEEIVEYAVKPLLAQSGPLDDIDVALRLIYALGKMDKWLYADITHFSQYWHYLNEQDETPGFADDITWDFISNVNSITRNATLYDALKAMKFADFAVWSEARFSGMVKTALTLAVTTTLKELTP	soluble
MATNRSRRLRKKLCVDEFQELGFELNFHYKEGVDADAVNAFMLRFIDQAIEANELTYGGCDEFGFVCLARRGSVNEEQRALIEAWLKQQPELASVEVGALVDAWYPEQPVLPKL	not soluble
MATPAFVKRITRSDAVLSLGVNFSKIYFKFVMWTGRYDRQAVPIPEPYILAMWHGRLIMAPMLQTKSKPLVALISGHRDGKIISRVGAAFGIQTAVGSSSKGGMRAAREMMRLGKSGHSLFVTPDGPRGPRMRINSEGVLDMARLTGLPILPVSVSLSRHKLLRSWDRLMLPGLFAKVAIRFGEPITVEAGSPTAEMAERLQAALTAAQNETDRIVGLQPVETALEHHHHHH	soluble
MATPSTGANNSIPAVRNQVEVQVGLVGDAQVGKTSLMVKYVQNIYDKEYTQTLGVNFLKRKVSIRSTDIIFSIMDLGGQREFINMLPIATVGSSVIIFLFDLTRPETLSSIKEWYRQAYGLNDSAIPILVGTKYDLLIDLDPEYQEQISRTSMKYAQVMNAPLIFCSTAKSINIQKIFKIALAKIFNLTLTIPEINEIGDPLLIYKHLGGQQHRHHNKSQDRKSHNIRKPSSSPSSKAPSPGVNT	soluble
MATSKLQALWNHPAGPKTIHFWAPTFKWGISIANIADFQKPPENISYLQQIAVTCTGMIWCRCSTIITPKNWNLFSVNVAMAATGIYQLTRKIKYDYVSEAEAAVEIEG	not soluble
MATSMTDIKGFNMISIEQEKELGNKFAVEIEKQQQPVNDPEVQRYVDKVGKRLLSGARAVEFDYVFKVVKDDSVNAFAIPGGRVYVHTGLLKAADNETELAGVLAHEINHAVARHGTRQMTQEYGYSLVLSLVLGDNPNMLAQLAGQLFGKAGMMSYSREYENQADFLGVETMYKAGYNPNGLTSFFQKLNAMDGGTQSNVARFFSTHPLTSERIQRVQAEIAKLPPQRYLTDETEFKKIKGRLKLEHHHHHH	soluble
MATVIHNPLKALGDQFYKEAIEHCRSYNSRLSAERSVRLPFLDSQTGVAQNNCYIWMEKRHRGPGLAPGQLYTYPARCWRKKRRLHPPEDPKLRLLEIKPEVELPLKKDGFTSESTTLEALLRGEGVEKKVDAREEESIQEIQRVLENDENVEEGNEEEDLEEDIPKRKDRTRGRARCPLPSLHCFSSLPSAVIDAKEWGGGGKWEATVAYRKKKIYPVHIFNMLEHHHHHH	not soluble
MAVELRYDEEAVFLRRVNRFVVEVKSSRGVVRCHLMDTGRIDHLASPGRRGVLIAWLNRLGGKTVCRAQAFKTAGGVVAVVDSRVPNRLFAEAAPMVVGGDASIEAEREVFGSRLDFLISTGRGLWAVEVKGVNLSLDGVGLFPNAPSARAVKHLEVLARLAREGVKPLMAFVALRPDIRVFAPNYRVDRRFASLACTLLRRGLVGMVGIRVSIDLEPGVVRIRPVATAPVQCPPLQPGR	soluble
MAVKEATSETKKRSGYEIITLTSWLLQQEQKGIIDAELTIVLSSISMACKQIASLVQRANISNLTGTQGAVNIQGEDQKKLDVISNEVFSNCLRSSGRTGIIASEEEDVPVAVEESYSGNYIVVFDPLDGSSNLDAAVSTGSIFGIYSPNDECLPDFGDDSDDNTLGTEEQRCIVNVCQPGSNLLAAGYCMYSSSVIFVLTIGKGVFVFTLDPLYGEFVLTQENLQIPKSGKIYSFNEGNYKLWDENLKKYIDDLKEPGPSGKPYSARYIGSLVGDFHRTLLYGGIYGYPRDKKSKNGKLRLLYECAPMSFIVEQAGGKGSDGHQRVLDIQPTEIHQRVPLYIGSTEEVEKVEKYLA	soluble
